According to paper doi:10.1101/2024.01.16.575832, “Heterodimerization of Endolysin Isoforms During Bacterial Infection by Staphylococcal Phage φ2638A” (bioRxiv, 2024):

T1: full-length Ply2638A endolysin (PlyFL) (Staphylococcus pseudintermedius phage …, UniProt Q4ZD58 1-486)
T1 construct: Endolysin Ply2638A of Staphylococcus pseudintermedius phage φ2638A, full length (M23 endopeptidase, central amidase, C-terminal SH3b CBD; SH3b domain is residues 393-486); internal start codon TTG at Leu180 silently changed to CTC so that only the FL isoform is made; expected mass 55.5 kDa; The TTG>CTC change at Leu180 is silent (Leu to Leu); Purified as a protein without a His-tag; In the SEC of …
T1 sequence (looked up): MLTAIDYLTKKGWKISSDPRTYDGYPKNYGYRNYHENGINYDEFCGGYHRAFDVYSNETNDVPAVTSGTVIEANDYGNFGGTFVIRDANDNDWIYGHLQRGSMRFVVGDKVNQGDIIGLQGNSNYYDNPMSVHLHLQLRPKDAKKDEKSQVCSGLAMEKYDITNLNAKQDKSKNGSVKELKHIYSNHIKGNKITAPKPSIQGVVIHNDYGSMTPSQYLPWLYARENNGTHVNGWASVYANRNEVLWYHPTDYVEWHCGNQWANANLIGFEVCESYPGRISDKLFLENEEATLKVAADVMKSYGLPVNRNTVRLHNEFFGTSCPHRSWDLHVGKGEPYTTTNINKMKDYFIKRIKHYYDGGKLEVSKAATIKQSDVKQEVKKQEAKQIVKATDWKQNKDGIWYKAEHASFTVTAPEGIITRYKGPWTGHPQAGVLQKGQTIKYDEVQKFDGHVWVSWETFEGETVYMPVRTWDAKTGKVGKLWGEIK

B1: Ply2638A short variant isoform (PlySV) (domain or fragment, UniProt Q4ZD58 180-486, looked up)
chain: LKHIYSNHIKGNKITAPKPSIQGVVIHNDYGSMTPSQYLPWLYARENNGTHVNGWASVYANRNEVLWYHPTDYVEWHCGNQWANANLIGFEVCESYPGRISDKLFLENEEATLKVAADVMKSYGLPVNRNTVRLHNEFFGTSCPHRSWDLHVGKGEPYTTTNINKMKDYFIKRIKHYYDGGKLEVSKAATIKQSDVKQEVKKQEAKQIVKATDWKQNKDGIWYKAEHASFTVTAPEGIITRYKGPWTGHPQAGVLQKGQTIKYDEVQKFDGHVWVSWETFEGETVYMPVRTWDAKTGKVGKLWGEIK
notes: expected mass 35.3 kDa; the C-terminal SH3b domain ends at residue 486; The first residue may be Met when translation starts at the TTG codon or in the recombinant construct (surmise); also called SV isoform; short variant (SV); source: E. coli, purified (cation exchange chromatography, SEC); also co-produced with the FL isoform from pET302_PlyWT (PlyWT), purified the same way
B2: central amidase domain of Ply2638A (Ami) (domain or fragment, UniProt Q4ZD58 180-359, looked up)
chain: LKHIYSNHIKGNKITAPKPSIQGVVIHNDYGSMTPSQYLPWLYARENNGTHVNGWASVYANRNEVLWYHPTDYVEWHCGNQWANANLIGFEVCESYPGRISDKLFLENEEATLKVAADVMKSYGLPVNRNTVRLHNEFFGTSCPHRSWDLHVGKGEPYTTTNINKMKDYFIKRIKHYYDG
notes: Endolysin Ply2638A of phage φ2638A, central N-acetylmuramoyl-L-alanine amidase domain, residues 180-359 (Leu180-Gly359); The limits are printed for the construct used in crystallisation trials; also called amidase domain alone; source: E. coli, purified (cation exchange chromatography, SEC)

Experiments:
[1] = target: T1, full-length Ply2638A endolysin (PlyFL); assay: SEC-MALS; 1:3 (w/w) mixture of PlyFL and PlySV at 1 mg/mL, Superdex 200 10/30, 10 mM HEPES, 150 mM NaCl, 3.4 mM EDTA, 0.005 % Tween20, pH 7.4; conditions: both partners purified
[2] = target: T1, full-length Ply2638A endolysin (PlyFL); assay: SPR; Biacore X, PlyFL immobilised by amine coupling on a CMD500L chip; analytes at 750 nM, 1 μM, 2.5 μM and 5 μM, 10 μL/min, running buffer PBS pH 7.4; steady state not attained; conditions: both partners purified

Binder | stoichiometry N [1] | binding result [2]
B1 | 1 PlySV per PlyFL | –
B2 | – | binds
